From patent US20080038735A1 come the findings set out here.

For this test, the target named is TNFa, P01375. Description: not stated (told as a known affinity); low affinity dAb, known affinity, lower bound. The settings on record: remark: other sources report otherwise.
TNFa, P01375, sequence (P01375 77-233 limits assumed): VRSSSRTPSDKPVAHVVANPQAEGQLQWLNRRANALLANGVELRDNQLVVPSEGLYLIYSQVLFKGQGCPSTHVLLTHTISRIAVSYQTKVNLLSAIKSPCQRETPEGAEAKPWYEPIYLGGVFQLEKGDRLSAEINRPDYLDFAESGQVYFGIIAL

B1: Vk(TAR1-5) (protein)
VL: DIQMTQSPSSLSASVGDRVTITCRASQSIFMNLLWYQQKPGKAPKLLIYNASVLQSGVPSRFSGSGSGTDFTLTISSLQPEDFATYYCQQVVWRPFTFGQGTKVEIKR
modifications: here or on the partner: biotinylated (sites not given)
On to B1, for which the Kd (usually the free concentration of one partner at which half of the binding sites on the other are occupied at equilibrium, for simple one-to-one binding) was above 5 µM.
